Substrate in the data set: CCCCCCCC(=O)N(C)CCN
Put plainly: steady-state acetyltransferase assay, substrate saturation. Type of data set: biochemical, Pseudomonas aeruginosa. Particulars: AcCoA held at 0.5 mM; NANMO 0-3.5 mM, used as hydrochloride. The text has this:
steady-state acetyltransferase assay, substrate saturation on PA3944

B1: PA3944 (Pseudomonas aeruginosa PAO1) (protein)
chain: MNANLPPSAISELHGPRLLLRAWRDSDREAFAEMCADPQVMEFFPSVLDRAQSDALVDRVQAHFAERGYGPWALELPGEAAFIGFTGLFDVTMDVHFAPTVEIGWRLAPAYWGRGLAREAAETALDFAFERLRLPEVVAFTTPPNRRSWGLMERLGMRRDPAEDFDHPLLAADHPMRRHILYRVDAARWAER
notes: heterologous expression; N-terminal polyhistidine tag kept for kinetics, removed for crystallization; monomer in solution
With B1, the Km is listed as 1.07 ± 0.03 mM, the catalytic constant (kcat) stood at 0.41 s⁻¹ and the kcat/Km was 380 M⁻¹ s⁻¹.

For orientation: Km means the substrate concentration at which the rate is half of its maximum. By kcat is commonly meant the maximal rate divided by the concentration of active sites. By kcat/Km is commonly meant the turnover number divided by the Michaelis constant.

Values taken from paper PMC8072286, “Gcn5-Related N-Acetyltransferases (GNATs) With a Catalytic Serine Residue Can Play Ping-Pong Too” (Frontiers in Molecular Biosciences, 2021).
